Experimental findings from patent US12358963B2, “Regenerative polypeptides and uses thereof” (Juvena Therapeutics, Inc., priority 2019, dated 2025) are described below.

Format in all cases: cell-based
One experiment deals with DM1 human myoblast. In words: Gene expression fold change in DM1 human myoblast. The conditions noted are these: 48h; BMP7 50 ng/mL, Butyrate 100 nM, IGF2 200 ng/mL; FM 1.000.
A further experiment concerns mouse myoblast cells. In words: Mouse myoblast proliferation assay (EdU). The conditions noted are these: 48h, vehicle 10.56. The protocol:
(§1) FIG. 5A) Bar graph quantitation of % EdU+ mouse myoblast in response to BMP7. Myoblast were cultured 48h in the presence of BMP7 at indicated dose. Fresh media and BMP7 was added every 24h, followed by 2 hour EdU pulse and fixation. Mean∓S.D. Significant p-values (Vehicle˜BMP7 0.025 ug/mL: 1.21E-07, Vehicle˜BMP7 0.075 ug/mL: 8.05E-07, Vehicle˜BMP7 0.2255 ug/mL: 3.37E-03, Vehicle˜BMP7 0.9 ug/mL: 4.99E-02). FIG. 5B) Bar graph quantitation of % EdU+ human myoblast (person) in response to BMP7. Myoblast were cultured 72h in the presence of BMP7 at indicated dose. Cells were pulsed with EdU for 4 hours before fixation. Mean∓S.D. Significant p-values (Vehicle˜BMP7 1.56 ng/mL: 0.04). (*p<0.05 by Welch's One-Tailed T-test, n=2)
FIG. 6A) Bar graph of % EdU+ mouse myoblast cells compared to vehicle. Mouse myoblast were cultured 48h in the presence of indicated factors, followed by a 2 hour EdU pulse prior to fixation. Mean∓S.D. Significant p-values (FM˜BMP7: 0.008 ug/mL: 3.17E-02, FM˜Leucine: 300 uM BMP7: 0.008 ug/mL: 2.77E-03, FM˜Leucine: 100 uM BMP7: 0.008 ug/mL: 3.72E-05, FM˜Leucine: 900 uM BMP7: 0.008 ug/mL: 2.52E-03). (*p<0.05 by One-Way ANOVA Tukey Honest Significant Difference, n=2-6)
FIG. 7A: Bar graph of % EdU+ mouse myoblast cells compared to vehicle. Mouse myoblast were cultured 48h in the presence of indicated factors. EdU pulse and fixation. Mean∓S.D. (*p<0.05 by Student's One-Tailed T-Test of increased activity, n=2-6)
FIG. 10A) The suspension CHO cells were transiently transfected with either the empty control plasmid or the FGF17-hFcm encoding plasmid. After four days, the culture supernatants were collected and added into the culture of mouse myoblast cells for 48 hours, followed by a 2 hour EdU pulse prior to fixation. […] FIG. 10B) The suspension CHO cells were transiently transfected with the FGF17-hFcm encoding plasmid. After four days, the culture supernatants were collected and FGF17-hFcm was affinity-purified by Protein A membrane column. The purified FGF17-hFcm was added into the culture of mouse myoblast cells for 48 hours, followed by a 2 hour EdU pulse and fixation.
FIG. 11A: SDS-PAGE of culture supernatants from CHO cells transiently transfected with FGF17-hFcm or its mutants encoding plasmids (FGF17d181-216-hFcm, FGF17d204-216-hFcm, FGF17R204QK207Q-hFcm). The expressed FGF17-hFcm proteins and the mutant proteins were indicated by the white arrowheads. FIG. 11B) The culture supernatants from CHO cells transiently transfected with different FGF17 encoding plasmids were added into the culture of mouse myoblast cells for 48 hours followed by 2 hour EdU pulse and fixation.
FIG. 12A) SDS-PAGE of culture supernatants from CHO cells transiently transfected with FGF17-hFcm or its mutants encoding plasmids (FGF17d197-216-hFcm, FGF17K191AK193AS200A-hFcm). The expressed FGF17-hFcm proteins and the mutant proteins were indicated by the white arrowheads. FIG. 12B) The culture supernatants from CHO cells transiently transfected with different FGF17 encoding plasmids were added into the culture of mouse myoblast cells for 48 hours, followed by 2 hour EdU pulse and fixation.
FIG. 14A: Bar graph of % EdU+ mouse myoblast cells compared to vehicle. Myoblast were cultured 48h in the presence of indicated factors. Fresh media and factors were added every 24h, followed by 2 hour EdU pulse and fixation. Mean∓S.D. Table quantitation of % EdU and p-values (*p<0.05 by One-Way ANOVA Tukey Honest Significant Difference, n=2-6)
FIG. 15A: Bar graph of % EdU+ mouse myoblast cells compared to vehicle. Myoblast were cultured 48h in the presence of indicated factors. Fresh media and factors were added every 24h, followed by 2 hour EdU pulse and fixation. Mean∓S.D. Table quantitation of % EdU and p-values shown. (*p<0.05 by Student's One-Tailed T-Test of increased activity, n=2-6)
Bar graph of total EdU+ mouse myoblast cells compared per condition. Myoblast were cultured 48h in the presence of indicated factors. […]

Another experiment relates to human myoblast. In words: Human myoblast proliferation (nuclei counts, EdU counts). Particulars: 72h, vehicle 2083.5. The protocol: as §1
Bar graph of total EdU+ mouse myoblast cells compared per condition. Myoblast were cultured 48h in the presence of indicated factors. Fresh media and factors were added every 24h, followed by 2 hour EdU pulse and fixation. Mean∓Standard Deviation(SD) Table quantitation of EdU counts per field and p-values for mouse assay (*p<0.05 by Student's One-Tailed T-Test of increased activity, n=3-6, Synergy values <1 are evidence of effect). Bar graph of total EdU+ human myoblast cells per condition. Myoblast were cultured 72h in the presence of indicated factors, followed by 4 hour EdU pulse and fixation. Fresh media and factors were added every 24h. Mean∓Standard Deviation(SD). Table quantitation of +EdU counts and p-values for human assay. (*p<0.05 by Student's One-Tailed T-Test of increased activity, n=3-6, Synergy values <1 are evidence of effect)

Another experiment has as its system human chondrocyte. In words: Human chondrocyte proliferation (% EdU+). Particulars: 0.1 ug/mL, 48h; vehicle 0.744. The protocol:
Chondrocytes were cultured for 48h in the presence of FGF17 at indicated dose. FGF18 was added at 0.1 ug/mL as a positive control. Fresh media and FGF17 was added every 24h. Table of % EdU+ chondrocyte and p-values depicted. Mean∓S.D. (*p<0.05 by Tukey Honest Significant Difference T-test, n=2-3)

B1: BMP7: BMP7 polypeptide, BMP receptor agonist (protein, UniProt P18075 293-431, looked up)
Bone morphogenetic protein 7: STGSKQRSQNRSKTPKNQEALRMANVAENSSSDQRQACKKHELYVSFRDLGWQDWIIAPEGYAAYYCEGECAFPLNSYMNATNHAIVQTLVHFINPETVPKPCCAPTQLNAISVLYFDDSSNVILKKYRNMVVRACGCH
Turning to B1, the “MYF5 expression fold change compared to FM” value in the experiment with DM1 human myoblast is given as 0.709. For the same molecule, the “MYOD1 expression fold change compared to FM” value in the experiment on DM1 human myoblast was 0.709. Further, the “MYOG expression fold change compared to FM” value in the experiment on DM1 human myoblast amounted to 0.361. For the same molecule, the “% EdU” value was 18.08% with mouse myoblast cells (BMP7 0.025 ug/mL); 17.53% in the experiment on mouse myoblast cells (BMP7 0.075 ug/mL); 14.93% in the experiment on mouse myoblast cells (BMP7 0.2255 ug/mL); 12.93% in the experiment with mouse myoblast cells (BMP7 0.45 ug/mL); 13.91% with mouse myoblast cells (BMP7 0.9 ug/mL); 10.37% in the experiment with mouse myoblast cells (BMP7 1.8 ug/mL). Also, the “Nuclei Counts” value is given as 2144.5 in the experiment with human myoblast (BMP7 0.78 ng/mL, donor); 2552.5 in the experiment on human myoblast (BMP7 1.56 ng/mL); 2408 with human myoblast (BMP7 3.12 ng/mL); 2422.5 in the experiment on human myoblast (BMP7 6.25 ng/mL); 2706 in the experiment on human myoblast (BMP7 12.5 ng/mL); 2509 in the experiment with human myoblast (BMP7 25 ng/mL).

B2: FGF18: FGF18 added at 0.1 ug/mL as a positive control (protein, UniProt O76093 28-207, looked up)
Fibroblast growth factor 18: EENVDFRIHVENQTRARDDVSRKQLRLYQLYSRTSGKHIQVLGRRISARGEDGDKYAQLLVETDTFGSQVRIKGKETEFYLCMNRKGKLVGKPDGTSKECVFIEKVLENNYTALMSAKYSGWYVGFTKKGRPRKGPKTRENQQDVHFMKRYPKGQPELQKPFKYTTVTKRSRRIRPTHPA
Take B2: in the experiment with human chondrocyte, the “% EdU” value was 6.039%.
